Measured values reported in patent US20210253725A1 (BIONTECH, published 2021).

T1: CD27 expressed on the cell surface (HT1080_CD27 cells) (human, UniProt P26842 20-260)
T1 sequence (looked up): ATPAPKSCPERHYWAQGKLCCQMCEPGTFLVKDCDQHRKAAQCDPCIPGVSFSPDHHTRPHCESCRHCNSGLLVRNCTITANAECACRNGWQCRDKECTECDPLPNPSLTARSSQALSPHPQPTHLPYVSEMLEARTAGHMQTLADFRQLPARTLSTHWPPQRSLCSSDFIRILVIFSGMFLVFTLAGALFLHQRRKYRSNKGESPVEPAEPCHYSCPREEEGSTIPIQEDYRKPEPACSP

T2: CD27 protein (His-tagged, Sino Biological Inc. 10039-H08B1) (human, UniProt P26842 20-192)
T2 construct: bought; coated onto ELISA plates; also called human CD27; recombinant protein; not shown: His tag
T2 sequence (looked up): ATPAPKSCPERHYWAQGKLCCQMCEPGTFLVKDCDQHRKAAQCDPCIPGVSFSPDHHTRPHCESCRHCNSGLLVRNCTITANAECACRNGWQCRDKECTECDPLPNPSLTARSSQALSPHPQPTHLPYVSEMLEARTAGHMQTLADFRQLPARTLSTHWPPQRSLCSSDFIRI


Key:
[1] = molecular target: T1, CD27 expressed on the cell surface …; assay: cell-based or functional assay
[2] = molecular target: T2, CD27 protein (His-tagged, Sino …); assay: ELISA on coated His-tagged CD27
[3] = molecular target: T1, CD27 expressed on the cell surface …; assay: cellular binding assay, HT1080_CD27 cells
Further: test concentration or dose not given here.

Row | IL-8, cross-linked by F(ab')2 fragment [abs. corr.] [1] | IL-8 [abs. corr.] [1] | ELISA [abs. corr.] [2] | Cellular binding assay [RFU] [3] | Binder
1 | 1.16 abs. corr. | 0.678 abs. corr. | 3.18 abs. corr. | 338 RFU | P018.S.06.A.F04 (antibody, V domains shown, V regions on human Ig constant parts; also called AB27_109) VH: QQQLEESGGGLVKPEGSLTLTCKASGFTLSSYLMCWVRQAPGKGLELIGCIGTYSGATYYGSWAKDRFTIAKTSSTTVTLQMTSLTAADTATYFCARDYNFALWGPGTLVTVSS VL: AIVMTQTPSSKSVPVGDTVTINCQASESVYNNNYLSWFQQKPGQPPKLLIYGASTLTSGVPSRFKGSGSGTQFTLTISDVVSDDAATYYCAGYKSSWTDGNAFGGGTEVVVK
2 | 1.43 abs. corr. | 0.382 abs. corr. | 3.17 abs. corr. | 292 RFU | P018.S.04.A.C05 (antibody, V domains shown, V regions on human Ig constant parts; also called AB27_70) VH: QSVEESGGRLVTPGTPLTLTCTVSGFSLNYYSMAWVRQVPGEGLEWIGTINTGGGTYYASWAKGRFTISKTSTTVDLKMTSLTAADTATYFCARSDGTGITYYNLWGQGALVTVSS VL: ALVMTQTASPVSAAVGGTVTINCQASETIYSNLAWYQQKQGQPPKLLIYRASNLASGVPSRFSGSESGTQFTLTISGVQSDDAATYYCQGYYNTGITGFGGGTEVVVK
3 | 2.17 abs. corr. | 0.872 abs. corr. | 3.52 abs. corr. | 353 RFU | P018.S.09.A.E05 (antibody, V domains shown, V regions on human Ig constant parts; also called AB27_155) VH: QSLEESGGRLVTPGTPLTLTCTVSGIDLSRYDMSWVRQAPGKGLEWIGFIGASGSTYYASWVKGRFTISKTSTTVDLKITSPTTEDTATYFCAREETDSRGYYYSLWGPGTPVTVSS VL: ALVMTQTPASVEAAVGGTVTINCQASQSISDLLGWYQQKPGQPPKLLIYDASDLASGVPSRFSGSGSGTEFTLTISGVQSDDAATYYCQQGYSINNVDNAFGGGTEVVVK
4 | 1.67 abs. corr. | 0.205 abs. corr. | 3.19 abs. corr. | 196 RFU | P018.S.02.A.G04 (antibody, V domains shown, V regions on human Ig constant parts; also called AB27_39) VH: QSLEESGGRLVTPGGSLTLTCTVSGIDLSSYAMGWVRQAPGKGLEYIGIIYTSNRTHYATWAKGRFTISKSSTTVDLKATSLTTEDTATYFCGRYGRGSGGYYYGMDLWGPGTLVTVSS VL: DIVMTQTPASVEAAVGGTVTIKCQASQSGDNYCSWYQQKPGQPPKLLIYQASKLTSGVPSRFRGSRSGTEYTLTISDLESADAATYYCQNYCAGSGVCLGIAFGGGTEVVVK
5 | 1.74 abs. corr. | 0.274 abs. corr. | 3.16 abs. corr. | 177 RFU | P018.S.07.A.G04 (antibody, V domains shown, V regions on human Ig constant parts; also called AB27_130) VH: QSLEESGGRLVTPGTPLTLTCTVSGIDLSSYAMGWVRQAPGKGLEYIAIIYTTNRTHYATWAKGRFTISKSSTTVDLKATSLTTEDTATYFCGRYGRGSGGYYYGMDLWGPGTLVTVSS VL: DIVMTQTPASVEAAVGGTVTIKCQASQSGDNYCSWYQQKPGQPPKLLIYQASKLTSGVPSRFRGSRSGTEYTLTISDLESADAATYYCQNYCAGSGVCLGIAFGGGTEVVVK
6 | 1.95 abs. corr. | 0.504 abs. corr. | 3.17 abs. corr. | 214 RFU | P018.S.09.A.A05 (antibody, V domains shown, V regions on human Ig constant parts; also called AB27_145) VH: QSVEESGGRLVTPGTPLTLTCTVSGFSLSSYAMSWVRQAPGKGLEWIGYIWSGGTTDYASWAKGRFTISKTSTTVDLKITDPTTEDTATYFCARGLGDRGSSDYYMPLKLWGQGTLVTVSS VL: AAVLTQTPSPVSAAVGGTVTINCQASEDIESYLAWYQQKPGQPPKLLIYSTSNLASGVSSRFRGSGSGTQLTLTISDLESADAATYYCQCTYDGSSAVWGAFGGGTEVVVK
7 | 1.04 abs. corr. | 0.08 abs. corr. | 3.19 abs. corr. | 333 RFU | P018.S.10.A.B01 (antibody, V domains shown, V regions on human Ig constant parts; also called AB27_166) VH: QSLEESGGRLVTPGTPLTLTCTASGFSLSSYYMSWVRQAPGKGLEWIGIIDRAGTTYYATWAKGRFTISRTSTTVDLKMTSPTTEDTGTYFCARNFIYGVGTYYGSDLWGQGTLVTVSS VL: DVVMTQTPASVSDPVGGTVTIKCQASESISRRLAWYQQKPGQPPKLLIYGASDLASGVPSRFSGSGSGTEFTLTISGVQSDDAATYYCQDTDYGSGHLGAFGGGTEVVVK
